In patent US12397036B2, “Peptide exchange protein” (Cambridge Enterprise Limited, priority 2018, dated 2025):

Assays:
Type in all cases: cell-based
HLA-A2 = target: T1, HLA-A2 (Homo sapiens, UniProt P04439, D140Y/D185E/D98H/E176V/E277Q/G131W/G231S/I119V/I121R/I166T/I218V/L300P/L318F/N151K/N90K/P208A/P217A/Q86G/Q94H/R138H/R169H/T345S); test: NLV* and YLL* viral peptide loading on HeLaM-ABC^KO cells -/+ HLA-A2; settings: for loading of viral peptides NLV* and YLL* onto surface expressed HLA-A2: 10 nM peptide 15 min
T1 construct: expressed in transfected cells; host or cells: HeLaM-HLA-ABC-KO
Procedure: For the histograms in A & C 100 nM of the indicated recombinant TAPBPR protein was used. […] The TCR is specific for […] peptide presented on HLA-A2 molecules.

[1] = target: T2, HLA-A2 on SKBR3 and MCF-7 cells (Homo sapiens, UniProt P04439, D140Y/D185E/D98H/E176V/E277Q/G131W/G231S/I119V/I121R/I166T/I218V/L300P/L318F/N151K/N90K/P208A/P217A/Q86G/Q94H/R138H/R169H/T345S); test: YLL* peptide loading on breast cancer cell lines; settings: for loading of antigenic peptide onto MCF-7 and SKBR3 cells: 100 nM protein, YLL* peptide
T2 construct: endogenous in cells; host or cells: SKBR3 and MCF-7
Procedure: (§1) Bar graphs show (B) the binding YLL* peptide and (C) the binding of TCR-like mAb reagent LMP-1 which recognises the EBV specific peptide YLL in the context of HLA-A2, when SKBR3 and MCF-7 cells were incubated with no peptide, peptide alone, or peptide in the presence of 100 nM soluble TAPBPR or 100 nM TAPBPR-Her2 antibody fusion protein.

[2] = target: T3, YLL/HLA-A2 complexes on SKBR3 and MCF-7 cells (Homo sapiens, UniProt P04439, D140Y/D185E/D98H/E176V/E277Q/G131W/G231S/I119V/I121R/I166T/I218V/L300P/L318F/N151K/N90K/P208A/P217A/Q86G/Q94H/R138H/R169H/T345S); test: TCR-like mAb LMP-1 staining of breast cancer cell lines
T3 construct: endogenous in cells; host or cells: SKBR3 and MCF-7
Procedure: as §1

HLA-A*68:02 = target: T4, HLA-A*68:02 (Homo sapiens, UniProt P04439, A269V/D140Y/D185E/E176V/E277Q/E87N/F33Y/G231S/I121R/I166T/I218V/L180W/L300P/L318F/N151K/P208A/P217A/Q86R/R138H/R169H/S129P/T345S/V36M); test: ETV* peptide loading on HeLaM, HeLaM+Her2 and HeLaM^Her2KO cells; settings: Her2-dependent; 10 nM peptide 15 min
T4 construct: HLA-A68 (MHC class I) expressed on HeLa; endogenous in cells; host or cells: HeLaM and derivatives (TAPBPR-KO with or without TAPBPR/tapasin constructs, +Her2, Her2-KO, +PDL1, pD-GFP); in some arms HeLaM-HLA-ABC-KO re-expressing HLA-A*68:02
Text: Note, there is endogenous Her2 on HeLa.

[3] = target: T5, HLA-A68 (MHC class I) expressed on HeLa cells (Homo sapiens, UniProt P04439, A269V/D140Y/D185E/E176V/E277Q/E87N/F33Y/G231S/I121R/I166T/I218V/L180W/L300P/L318F/N151K/P208A/P217A/Q86R/R138H/R169H/S129P/T345S/V36M); test: ETV* peptide loading on HeLa cells by exogenous mouse TAPBPR
T5 construct: HLA-A68 (MHC class I) expressed on HeLa; endogenous in cells; host or cells: HeLaM and derivatives (TAPBPR-KO with or without TAPBPR/tapasin constructs, +Her2, Her2-KO, +PDL1, pD-GFP); in some arms HeLaM-HLA-ABC-KO re-expressing HLA-A*68:02

B1: TAPBPR-Her2-scFv: recombinant TAPBPR fused to a scFv specific for Her2; SEQ ID NO: 8 (protein)
chain: MGTQEGWCLLLCLALSGAAETKPHPAEGQWRAVDVVLDCFLVKDGAHRGALASSEDRARASLVLKQVPVLDDGSLEDFTDFQGGTLAQDDPPIIFEASVDLVQIPQAEALLHADCSGKEVTCEISRYFLQMTETTVKTAAWFMANVQVSGGGPSISLVMKTPRVAKNEVLWHPTLNLPLSPQGTVRTAVEFQVMTQTQSLSFLLGSSASLDCGFSMAPGLDLISVEWRLQHKGRGQLVYSWTAGQGQAVRKGATLEPAQLGMARDASLTLPGLTIQDEGTYICQITTSLYRAQQIIQLNIQASPKVRLSLANEALLPTLICDIAGYYPLDVVVTWTREELGGSPAQVSGASFSSLRQSVAGTYSISSSLTAEPGSAGATYTCQVTHISLEEPLGASTQVVPPERRHVGGGGSGGGGSGGGGSTSADLGSRAMAQVQLVQSGAEVKKPGESLKISCKGSGYSFTSYWIAWVRQMPGKGLEYMGLIYPGDSDTKYSPSFQGQVTISVDKSVSTAYLQWSSLKPSDSAVYFCARHDVGYCSSSNCAKWPEYFQHWGQGTLVTVSSGGGGSGGGGSGGGGSQSVLTQPPSVSAAPGQKVTISCSGSSSNIGNNYVSWYQQLPGTAPKLLIYDHTNRPAGVPDRFSGSKSGTSASLAISGFRSEDEADYYCASWDYTLSGWVFGGGTKLTVLGAAAGGGGS
modifications: TAPBPR-Her2scFv
B1 was tested, and the “peptide loading on cells lacking HLA-A, -B and -C expression” value (HLA-A2) was “no peptide loading was observed”, the “loading of viral peptides NLV* and YLL* onto surface expressed HLA-A2” value (HLA-A2) was “could load fluorescent variants” and the “loading of viral peptides NLV* and YLL* onto surface expressed HLA-A2” value (HLA-A2; listed as TAPBPR-Her2-svFc) was “shown to load viral peptides onto HeLa cells expressing HLA-A2”. For the same molecule, the “loading of antigenic peptide onto MCF-7 and SKBR3 cells” value [1] was “efficiently loads antigenic peptides onto both of these breast cancer cell lines”, the “loading of antigenic peptide onto MCF-7 and SKBR3 cells” value ([1]; listed as TAPBPR-her 2 antibody fusion protein) was “works extremely efficiently on both these breast cancer cell lines” and the “peptide loading on SKBR3 cell line” value ([1]; low MHC I expression) was “efficient peptide loading”. For the same molecule, the “YLL/HLA-A2 complexes accessible for TCR binding versus soluble TAPBPR+peptide or peptide alone” value [2] was “significantly more YLL/HLA-A2 complexes were accessible for TCR binding”, the “binding of TCR-like mAb LMP-1 to treated cells” value ([2]; fusion protein and peptide) was “bound extremely well” and the “loading of exogenous peptide ETV* onto surface of HeLaM cells” value (HLA-A*68:02) was “very efficient at loading exogenous peptide”.

B2: mouse TAPBPR: exogenous luminal domains of mouse TAPBPR; SEQ ID NO: 22 (protein)
chain: DPPTAPTTAERQRQPTDIILDCFLVTEDRHRGAFASSGDRERALLVLKQVPVLDDGSLEGITDFQGSTETKQDSPVIFEASVDLVQIPQAEALLHADCSGKAVTCEISKYFLQARQEATFEKAHWFISNMQVSRGGPSVSMVMKTLRDAEVGAVRHPTLNLPLSAQGTVKTQVEFQVTSETQTLNHLLGSSVSLHCSFSMAPDLDLTGVEWRLQHKGSGQLVYSWKTGQGQAKRKGATLEPEELLRAGNASLTLPNLTLKDEGTYICQISTSLYQAQQIMPLNILAPPKVQLHLANKDPLPSLVCSIAGYYPLDVGVTWIREELGGIPAQVSGASFSSLRQSTMGTYSISSTVMADPGPTGATYTCQVAHVSLEEPLTTSMRVLPNPEQRGT
modifications: luminal domains of mouse TAPBPR
For B2, the “loading of ETVSK*QSNV (ETV*) to HLA-A68” value [3] was “shown to load fluorescent human neoantigen peptide” and the “peptide loading efficiency relative to human TAPBPR” value [3] was “less efficient than human TAPBPR”.
